Consider two molecules from patent US20130266582A1 (YEDA RESEARCH AND DEVELOPMENT, published 2013).

Series [1] concerns the molecule itself. As to the kind of experiment: analytical size exclusion chromatography (Superdex 200) of immunopurified Flag-DAPk. An excerpt: Immunopurified Flag-DAPk was loaded onto an analytical Superdex™ 200 10/300 (GE Healthcare) gel-filtration column equilibrated with TBS. The eluting protein was detected by UV absorbance at 280 nm. Fractions were collected using the AKTA Prime fraction collector and analyzed by Western blot with anti-Flag antibodies. The migration position of the fractions containing Flag-DAPk was assigned relative to the migration position of Gel Filtration Calibration HMW standards (GE Healthcare) on the same column.
It elutes in two clearly defined peaks corresponding to ˜640 kDa and ˜320 kDa (FIG. 1D). […] Furthermore, the absence of a peak at the 160 kDa size range excluded the existence of monomers under native conditions. Fractions were collected at indicated elution points and submitted to western blot analysis, confirming DAPk identity at the selected peaks (FIG. 1E).
(Size exclusion chromatography separates by hydrodynamic size, large species first.)

Series [2] has as its target T1, HA-DAPk (N-terminal hemaglutinin-tagged human full-length death-associated protein kinase) (human, UniProt P53355 1-1430).
T1 construct: also called HA-DAPk (WT); DAPk WT; not shown: N-terminal HA (hemaglutinin) tag
As to the kind of experiment: co-immunoprecipitation with anti-Flag beads from co-transfected HEK 293T cells, western blot (FIG. 2B). On the procedure:
FIG. 2A, Schematic representation of the different DAPk constructs utilized for mapping DAPk homo-oligomerization. The indicated domains: Kinase domain (KD); Ca⁺²/Calmodulin binding region (CaM); Ankyrin repeats (AK); P-Loop; Ras of complex proteins domain (ROC); C-terminal of ROC domain (COR); Death domain (DD); and Serine (Ser) rich tail. […] Immunoprecipitation with anti-Flag beads (IP-α-Flag) was performed and immuno-complexes and cell extracts were analyzed by western blot. FIG. 2C, Cells co-transfected with Flag-DAPk and one of the different HA-tagged DAPk constructs, namely HA-DAPk (WT), HA-ΔROC—a deletion between amino acids 667-954; HA-ΔKinase—a N-terminal deletion (1-285); and ΔROC/ΔKinase—deletion of both KD (1-285) and ROC domain (667-954). Immunoprecipitation and western blot were performed as in B. FIG. 2D, Cells co-transfected with Flag-ROC and HA-ROC; HA-ROC and Flag-ROC-Δ-P-loop; Flag-ROC and HA-DAPk (WT); Flag-ROC-Δ-P-Loop and HA-DAPk (WT); or HA-ROC and DAP1-Flag.
Immunoprecipitation with anti-Flag beads (IP-α-Flag) was performed and immuno-complexes and cell extracts were analyzed by western blot. […] Thus, ROC fragment by itself is sufficient to bind the full length DAPk. Also the ROC fragments interacted with each other (FIG. 2D). […] Together the experiments in FIG. 2B-D established the role of the ROC domain in mediating homo-oligomerization.
(Immunoblotting shows a protein as a band on a membrane.)

B1: Flag-DAPk (N-terminal Flag-tagged human full-length death-associated protein kinase) (enzyme)
chain: MTVFRQENVDDYYDTGEELGSGQFAVVKKCREKSTGLQYAAKFIKKRRTKSSRRGVSREDIEREVSILKEIQHPNVITLHEVYENKTDVILILELVAGGELFDFLAEKESLTEEEATEFLKQILNGVYYLHSLQIAHFDLKPENIMLLDRNVPKPRIKIIDFGLAHKIDFGNEFKNIFGTPEFVAPEIVNYEPLGLEADMWSIGVITYILLSGASPFLGDTKQETLANVSAVNYEFEDEYFSNTSALAKDFIRRLLVKDPKKRMTIQDSLQHPWIKPKDTQQALSRKASAVNMEKFKKFAARKKWKQSVRLISLCQRLSRSFLSRSNMSVARSDDTLDEEDSFVMKAIIHAINDDNVPGLQHLLGSLSNYDVNQPNKHGTPPLLIAAGCGNIQILQLLIKRGSRIDVQDKGGSNAVYWAARHGHVDTLKFLSENKCPLDVKDKSGEMALHVAARYGHADVAQLLCSFGSNPNIQDKEEETPLHCAAWHGYYSVAKALCEAGCNVNIKNREGETPLLTASARGYHDIVECLAEHGADLNACDKDGHIALHLAVRRCQMEVIKTLLSQGCFVDYQDRHGNTPLHVACKDGNMPIVVALCEANCNLDISNKYGRTPLHLAANNGILDVVRYLCLMGASVEALTTDGKTAEDLARSEQHEHVAGLLARLRKDTHRGLFIQQLRPTQNLQPRIKLKLFGHSGSGKTTLVESLKCGLLRSFFRRRRPRLSSTNSSRFPPSPLASKPTVSVSINNLYPGCENVSVRSRSMMFEPGLTKGMLEVFVAPTHHPHCSADDQSTKAIDIQNAYLNGVGDFSVWEFSGNPVYFCCYDYFAANDPTSIHVVVFSLEEPYEIQLNQVIFWLSFLKSLVPVEEPIAFGGKLKNPLQVVLVATHADIMNVPRPAGGEFGYDKDTSLLKEIRNRFGNDLHISNKLFVLDAGASGSKDMKVLRNHLQEIRSQIVSVCPPMTHLCEKIISTLPSWRKLNGPNQLMSLQQFVYDVQDQLNPLASEEDLRRIAQQLHSTGEINIMQSETVQDVLLLDPRWLCTNVLGKLLSVETPRALHHYRGRYTVEDIQRLVPDSDVEELLQILDAMDICARDLSSGTMVDVPALIKTDNLHRSWADEEDEVMVYGGVRIVPVEHLTPFPCGIFHKVQVNLCRWIHQQSTEGDADIRLWVNGCKLANRGAELLVLLVNHGQGIEVQVRGLETEKIKCCLLLDSVCSTIENVMATTLPGLLTVKHYLSPQQLREHHEPVMIYQPRDFFRAQTLKETSLTNTMGGYKESFSSIMCFGCHDVYSQASLGMDIHASDLNLLTRRKLSRLLDPPDPLGKDWCLLAMNLGLPDLVAKYNTSNGAPKDFLPSPLHALLREWTTYPESTVGTLMSKLRELGRRDAADFLLKASSVFKINLDGNGQEAYASSCNSGTSYNSISSVVSR
notes: bait in anti-Flag immunoprecipitation; also called full length DAPk; not shown: N-terminal Flag tag
For the molecule B1, the binding result in series [1] is on record as “binds”.

B2: DAP1-Flag (C-terminal Flag-tagged death-associated protein 1) (other, UniProt P51397 2-102, looked up)
chain: SSPPEGKLETKAGHPPAVKAGGMRIVQKHPHTGDTKEEKDKDDQEWESPSPPKPTVFISGVIARGDKDFPPAAAQVAHQKPHASMDKHPSPRTQHIQQPRK
notes: Irrelevant Flag-tagged control protein; not shown: C-terminal Flag tag
With B2, in series [2], the binding result is given as “no binding”.
